# In patent publication US20160200782A1 (MOERAE MATRIX, published 2016):
# T1: PKCζ(h) (human, UniProt Q05513 1-592)
# T1 sequence (looked up): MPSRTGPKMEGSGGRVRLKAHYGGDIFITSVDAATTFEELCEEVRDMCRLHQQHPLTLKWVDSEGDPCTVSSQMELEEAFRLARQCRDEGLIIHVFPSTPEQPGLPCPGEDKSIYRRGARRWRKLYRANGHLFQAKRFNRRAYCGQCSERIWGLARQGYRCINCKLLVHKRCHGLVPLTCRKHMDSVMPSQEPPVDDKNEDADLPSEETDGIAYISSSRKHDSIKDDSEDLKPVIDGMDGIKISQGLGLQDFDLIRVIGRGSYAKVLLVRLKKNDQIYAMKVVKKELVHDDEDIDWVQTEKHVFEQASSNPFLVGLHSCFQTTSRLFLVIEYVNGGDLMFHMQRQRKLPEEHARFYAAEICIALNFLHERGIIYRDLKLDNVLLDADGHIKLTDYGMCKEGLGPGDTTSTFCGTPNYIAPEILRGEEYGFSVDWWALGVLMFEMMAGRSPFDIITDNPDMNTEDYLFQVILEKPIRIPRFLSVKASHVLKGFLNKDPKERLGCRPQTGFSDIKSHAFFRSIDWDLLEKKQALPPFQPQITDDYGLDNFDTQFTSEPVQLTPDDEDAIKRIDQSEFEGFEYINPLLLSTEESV
# T2: PKG1β(h) (human, UniProt Q13976-2 1-686)
# T2 sequence (looked up): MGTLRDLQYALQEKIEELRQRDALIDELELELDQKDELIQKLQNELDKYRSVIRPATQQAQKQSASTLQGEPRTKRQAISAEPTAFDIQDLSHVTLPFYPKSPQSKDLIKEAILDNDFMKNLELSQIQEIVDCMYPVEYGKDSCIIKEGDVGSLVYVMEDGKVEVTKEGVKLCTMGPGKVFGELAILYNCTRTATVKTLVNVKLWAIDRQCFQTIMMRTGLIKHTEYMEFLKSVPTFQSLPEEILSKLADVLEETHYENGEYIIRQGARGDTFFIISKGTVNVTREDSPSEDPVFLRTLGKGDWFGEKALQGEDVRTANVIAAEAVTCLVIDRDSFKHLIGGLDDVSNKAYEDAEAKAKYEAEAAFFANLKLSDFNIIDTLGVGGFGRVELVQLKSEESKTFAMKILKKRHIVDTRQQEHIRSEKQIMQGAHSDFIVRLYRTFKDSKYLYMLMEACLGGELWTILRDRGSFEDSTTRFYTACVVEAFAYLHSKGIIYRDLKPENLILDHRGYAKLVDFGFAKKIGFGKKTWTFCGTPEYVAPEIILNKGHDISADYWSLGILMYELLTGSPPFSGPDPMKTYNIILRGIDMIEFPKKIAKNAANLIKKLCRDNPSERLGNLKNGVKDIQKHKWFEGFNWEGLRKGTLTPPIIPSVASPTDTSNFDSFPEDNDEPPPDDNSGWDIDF
# T3: DMPK(h) (human, UniProt Q09013 1-629, limits assumed)
# T3 sequence (looked up): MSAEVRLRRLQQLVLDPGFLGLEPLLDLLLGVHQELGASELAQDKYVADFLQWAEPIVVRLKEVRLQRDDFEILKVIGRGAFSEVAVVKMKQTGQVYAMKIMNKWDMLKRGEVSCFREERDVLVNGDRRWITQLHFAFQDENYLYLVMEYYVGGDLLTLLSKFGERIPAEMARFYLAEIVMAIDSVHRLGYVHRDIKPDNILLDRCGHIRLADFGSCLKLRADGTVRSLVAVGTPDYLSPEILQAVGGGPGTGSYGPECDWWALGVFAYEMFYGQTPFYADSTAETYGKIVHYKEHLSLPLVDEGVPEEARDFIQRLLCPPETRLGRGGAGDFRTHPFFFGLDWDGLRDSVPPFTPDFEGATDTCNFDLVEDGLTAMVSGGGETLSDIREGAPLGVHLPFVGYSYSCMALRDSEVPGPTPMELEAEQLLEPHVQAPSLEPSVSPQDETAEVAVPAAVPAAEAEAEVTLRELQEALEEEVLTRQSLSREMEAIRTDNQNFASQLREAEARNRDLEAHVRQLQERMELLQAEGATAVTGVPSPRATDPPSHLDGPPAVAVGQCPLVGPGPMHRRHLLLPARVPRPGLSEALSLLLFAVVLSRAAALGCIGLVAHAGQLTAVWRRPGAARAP
# T4: EphA4(h) (human, UniProt P54764 570-986, limits assumed)
# T4 sequence (looked up): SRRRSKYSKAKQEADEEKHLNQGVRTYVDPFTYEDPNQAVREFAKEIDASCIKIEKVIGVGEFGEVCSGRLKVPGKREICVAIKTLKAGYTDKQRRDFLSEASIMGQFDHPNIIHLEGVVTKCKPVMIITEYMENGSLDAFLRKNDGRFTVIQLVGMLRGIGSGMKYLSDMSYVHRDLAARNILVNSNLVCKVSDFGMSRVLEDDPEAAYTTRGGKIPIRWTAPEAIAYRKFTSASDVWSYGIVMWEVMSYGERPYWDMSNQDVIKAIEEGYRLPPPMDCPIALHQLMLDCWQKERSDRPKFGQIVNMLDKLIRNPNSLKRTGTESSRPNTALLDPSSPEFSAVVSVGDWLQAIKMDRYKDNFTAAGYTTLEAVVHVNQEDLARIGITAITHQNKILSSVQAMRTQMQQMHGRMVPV
# Columns and labels:
# Assay in all cases: cell-based or functional assay
# PKCζ(h) = target: T1, PKCζ(h)
# CDK6/cyclinD3(h) = CDK6/cyclinD3(h) (human, UniProt Q00534 1-326; P30281 1-292)
# c-RAF(h) = c-RAF(h) (human, UniProt P04049 306-648, limits assumed)
# PKG1β(h) = target: T2, PKG1β(h)
# DMPK(h) = target: T3, DMPK(h)
# Rsk4(h) = Rsk4(h) (human, UniProt Q9UK32 1-745, limits assumed)
# CaMKIIβ(h) = CaMKIIβ(h) (human, UniProt Q13554 1-666, limits assumed)
# PAK3(h) = PAK3(h) (human, UniProt O75914 1-559, limits assumed)
# EphA4(h) = target: T4, EphA4(h)
# CSK(h) = CSK(h) (human, UniProt P41240 1-450)
# CDK6/cyclinD3(h), sequence (Q00534 whole entry, chain 1 of 2): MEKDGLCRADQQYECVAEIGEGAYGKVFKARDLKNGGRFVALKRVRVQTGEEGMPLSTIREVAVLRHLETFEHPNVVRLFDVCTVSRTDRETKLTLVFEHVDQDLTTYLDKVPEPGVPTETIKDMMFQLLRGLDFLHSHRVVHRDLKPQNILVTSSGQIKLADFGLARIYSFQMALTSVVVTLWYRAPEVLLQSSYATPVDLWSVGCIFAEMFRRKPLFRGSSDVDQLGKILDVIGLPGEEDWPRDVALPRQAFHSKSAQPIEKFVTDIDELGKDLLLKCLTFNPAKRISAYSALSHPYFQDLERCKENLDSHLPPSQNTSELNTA
# CDK6/cyclinD3(h), sequence (P30281 whole entry, chain 2 of 2): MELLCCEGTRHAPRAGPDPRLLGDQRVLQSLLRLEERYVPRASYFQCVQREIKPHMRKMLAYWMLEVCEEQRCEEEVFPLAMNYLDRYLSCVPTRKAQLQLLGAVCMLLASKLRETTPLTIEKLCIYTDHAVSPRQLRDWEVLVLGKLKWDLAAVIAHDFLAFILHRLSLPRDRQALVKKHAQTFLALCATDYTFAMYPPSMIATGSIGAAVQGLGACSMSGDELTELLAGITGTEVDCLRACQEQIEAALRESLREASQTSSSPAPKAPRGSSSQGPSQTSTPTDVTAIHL
# CaMKIIβ(h), sequence (Q13554 whole entry): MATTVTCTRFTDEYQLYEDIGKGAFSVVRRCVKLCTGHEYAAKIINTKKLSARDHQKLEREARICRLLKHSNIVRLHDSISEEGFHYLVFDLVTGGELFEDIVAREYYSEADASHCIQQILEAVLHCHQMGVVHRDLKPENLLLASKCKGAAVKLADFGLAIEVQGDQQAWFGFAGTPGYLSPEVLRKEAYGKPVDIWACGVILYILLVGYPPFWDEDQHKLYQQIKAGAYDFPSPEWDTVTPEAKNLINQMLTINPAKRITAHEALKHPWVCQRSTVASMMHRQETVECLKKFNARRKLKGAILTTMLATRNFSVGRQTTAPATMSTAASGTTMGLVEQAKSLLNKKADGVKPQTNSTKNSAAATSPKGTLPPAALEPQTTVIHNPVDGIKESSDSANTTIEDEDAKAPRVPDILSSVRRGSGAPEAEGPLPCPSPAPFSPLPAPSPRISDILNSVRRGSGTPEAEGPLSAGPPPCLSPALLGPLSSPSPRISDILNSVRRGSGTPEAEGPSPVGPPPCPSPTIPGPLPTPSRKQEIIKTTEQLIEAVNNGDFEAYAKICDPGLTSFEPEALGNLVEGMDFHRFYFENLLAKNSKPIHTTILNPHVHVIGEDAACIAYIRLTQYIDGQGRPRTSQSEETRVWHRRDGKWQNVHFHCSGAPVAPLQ
# Rsk4(h), sequence (Q9UK32 whole entry): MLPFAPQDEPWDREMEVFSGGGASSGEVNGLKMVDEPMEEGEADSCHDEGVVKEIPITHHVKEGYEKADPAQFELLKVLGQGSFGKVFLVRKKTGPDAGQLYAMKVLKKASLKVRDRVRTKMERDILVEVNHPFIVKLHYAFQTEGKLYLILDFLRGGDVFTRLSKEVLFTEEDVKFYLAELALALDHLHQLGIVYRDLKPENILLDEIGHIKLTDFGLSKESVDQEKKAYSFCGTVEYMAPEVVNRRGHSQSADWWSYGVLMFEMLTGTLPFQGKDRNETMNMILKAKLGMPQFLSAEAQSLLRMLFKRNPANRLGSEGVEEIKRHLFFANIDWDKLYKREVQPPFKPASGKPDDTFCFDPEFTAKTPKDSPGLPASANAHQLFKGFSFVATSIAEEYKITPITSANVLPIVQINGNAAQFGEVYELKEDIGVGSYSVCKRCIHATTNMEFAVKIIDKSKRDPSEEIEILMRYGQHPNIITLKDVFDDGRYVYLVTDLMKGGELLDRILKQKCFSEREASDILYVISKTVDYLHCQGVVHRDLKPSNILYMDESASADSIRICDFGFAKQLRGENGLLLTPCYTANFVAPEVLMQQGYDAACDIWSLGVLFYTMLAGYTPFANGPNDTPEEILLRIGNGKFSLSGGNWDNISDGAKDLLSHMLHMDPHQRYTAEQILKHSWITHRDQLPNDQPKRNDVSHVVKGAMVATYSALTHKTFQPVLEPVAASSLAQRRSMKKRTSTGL
# PAK3(h), sequence (O75914 whole entry): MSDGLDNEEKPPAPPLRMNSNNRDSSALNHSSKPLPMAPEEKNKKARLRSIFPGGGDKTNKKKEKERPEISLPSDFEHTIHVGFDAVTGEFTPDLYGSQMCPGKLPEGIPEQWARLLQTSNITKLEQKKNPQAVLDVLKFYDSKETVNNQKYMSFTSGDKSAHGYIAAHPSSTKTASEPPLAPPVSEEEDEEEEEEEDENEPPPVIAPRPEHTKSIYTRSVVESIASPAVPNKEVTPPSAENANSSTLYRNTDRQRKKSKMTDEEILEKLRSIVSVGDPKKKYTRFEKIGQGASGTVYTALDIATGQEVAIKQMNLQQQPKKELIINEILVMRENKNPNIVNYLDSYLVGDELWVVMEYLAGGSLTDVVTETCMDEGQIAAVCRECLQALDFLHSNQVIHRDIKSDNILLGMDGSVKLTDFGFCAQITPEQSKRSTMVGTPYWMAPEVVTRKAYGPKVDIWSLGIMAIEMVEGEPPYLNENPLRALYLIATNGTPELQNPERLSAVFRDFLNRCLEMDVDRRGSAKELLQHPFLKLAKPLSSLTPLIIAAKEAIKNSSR
% activity (PKCζ(h)) [%],% activity (CDK6/cyclinD3(h)) [%],% activity (c-RAF(h)) [%],% activity (PKG1β(h)) [%],% activity (DMPK(h)) [%],% activity (Rsk4(h)) [%],% activity (CaMKIIβ(h)) [%],% activity (PAK3(h)) [%],% activity (EphA4(h)) [%],% activity (CSK(h)) [%],Binder
75,85,102,53,54,91,11,121,65,16,KAFAKLAARLYRKALARQLGVAA [MMI-0400]
81,86,107,50,59,90,2,140,88,49,FAKLAARLYRKALARQLGVAA [MMI-0300]
